Measurements: PMC3171153

Tests used:
Test in all cases: SPR; BIAcore T100; scFv-His10-CLAMP (150 nM) captured on ePDZ-b1 affinity clamp immobilised on a CM5 chip; purified SHC1 injected at increasing concentrations, 30 ul/min; PBS with 0.05% Tween 20; global fit, 1:1 interaction model
[1] = target: anti-SHC1 scFv 72_2B01, His10-CLAMP-tagged
[2] = target: six of the eight chain-shuffled derivatives (positive in immunoprecipitation), as measured by SPR
[3] = target: anti-SHC1 scFv 72_1A10, His10-CLAMP-tagged
Chain of anti-SHC1 scFv 72_1A10, His10-CLAMP-tagged (heavy, as listed by the source): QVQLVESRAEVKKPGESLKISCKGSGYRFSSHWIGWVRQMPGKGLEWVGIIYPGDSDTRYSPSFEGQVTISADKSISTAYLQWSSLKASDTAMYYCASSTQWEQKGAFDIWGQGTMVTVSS

fold improvement in affinity over 58 E05 [1]: 59 fold | fold reduction in off-rate against 58 E05 [1]: 3.2 fold | Kd [2]: < 60 nM | koff [2]: < 0.1 s⁻¹ | Kd [3]: 25 nM
B1: SHC1 SH2 domain (purified SHC1 antigen) (domain or fragment)
chain: WFHGKLSRREAEALLQLNGDFLVRESTTTPGQYVLTGLQSGQPKHLLLVDPEGVVRTKDHRFESVSHLISYHMDNHLPIISAGSELCLQQPV
